Assays:
parvin alpha (PARVA) = parvin alpha (PARVA) (Homo sapiens (species ; …, UniProt Q9NVD7); test: ELISA
[1] = biological target: Frizzled class receptor 7 (Fzd7), His-tagged (UniProt O75084); test: BLI
[2] = biological target: alpha hemoglobin stabilizing protein (AHSP) (Homo sapiens (species ; …, UniProt Q9NZD4); test: ELISA
Chain of alpha hemoglobin stabilizing protein (AHSP) (Homo sapiens (Q9NZD4 whole entry): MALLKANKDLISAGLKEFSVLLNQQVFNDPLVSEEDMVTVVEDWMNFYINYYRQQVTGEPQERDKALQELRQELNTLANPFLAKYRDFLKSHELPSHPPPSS

Chain of parvin alpha (PARVA) (Homo sapiens (Q9NVD7 whole entry): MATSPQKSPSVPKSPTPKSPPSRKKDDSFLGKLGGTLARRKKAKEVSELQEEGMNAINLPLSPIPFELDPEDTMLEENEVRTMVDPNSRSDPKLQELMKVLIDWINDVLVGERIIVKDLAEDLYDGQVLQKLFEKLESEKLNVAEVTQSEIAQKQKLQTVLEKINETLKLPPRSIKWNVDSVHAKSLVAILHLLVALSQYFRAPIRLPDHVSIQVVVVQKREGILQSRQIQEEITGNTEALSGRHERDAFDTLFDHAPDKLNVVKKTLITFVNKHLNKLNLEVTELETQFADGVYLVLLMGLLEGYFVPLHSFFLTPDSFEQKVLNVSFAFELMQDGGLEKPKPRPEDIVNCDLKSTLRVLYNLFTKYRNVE

B1: representative PARVA binder (GaluxDesign de novo designed full-length IgG, cross-platform benchmark) (antibody, V domains shown)
VH: EEQLVESGGGLVQPGGSLRLSCAASGFNIKDYWIHWVRQAPGKGLEWVAWINPQSGWTNYADSVKGRFTISADTSKNTAYLQMNSLRAEDTATYYCAKIGDWGGKGYALDVWGQGTLVTVSS
VL: DIVMTQSPSSLSASVGDRVTITCRASQDISTALAWYQQKPGQAPKLLIYKASSLASGVPSRFSGSGSGTDFTLTISSLQPEDFATYYCQQFRDLSTLTFGQGTKVEIK
binding result (parvin alpha (PARVA)): binds

B2: F7.B (reference anti-Fzd7 antibody, PDB entry 6O3A) (antibody, V domains shown)
VH: EVQLVESGGGLVQPGGSLRLSCAASGFNFSSSSIHWVRQAPGKGLEWVAYIYPSYDYTYYADSVKGRFTISADTSKNTAYLQMNSLRAEDTAVYYCARGYFYTWGGMDYWGQGTLVTVSS
VL: DIQMTQSPSSLSASVGDRVTITCRASQSVSSAVAWYQQKPGKAPKLLIYSASSLYSGVPSRFSGSRSGTDFTLTISSLQPEDFATYYCQQYYSLFTFGQGTKVEIK
binding result [1]: binds

B3: representative AHSP binder (GaluxDesign de novo designed full-length IgG, cross-platform benchmark) (antibody, V domains shown)
VH: VQLVESGGGLVQPGGSLRLSCAASGFNIKSFWIHWVRQAPGKGLEWVAWIFALTGNTYYADSVKGRFTISADTSKNTAYLQMNSLRAEDTAVYYCAKASGVSIPLWFDVWGQGTLVTVSS
VL: DIQMTQSPSSLSASVGDKVTITCKASQDISNYLAWYQQKPGKAPKLLIYAASNRKYGVPSRFSGSGSGTDFTLTISSLQPEDFATYYCQQYYSTPLTFGQGTKVEIK
binding result [2]: binds
